The target of experiment [1] is fibrin matrix (thrombin- and factor XIIIa-treated human fibrinogen) (human) (UniProt P02671). Description: confocal microscopy of perfused fibrin matrices.
Experiment [2] concerns the target fibrinogen fragment D (human). Description: SPR. A general note: Surface plasmon resonance follows binding to a sensor surface in real time, without labels.

pKd: −log10 of the molar value.

Usually pKd stands for the Kd on a negative log10 scale, so that one unit is a factor of ten. High values mean a small Kd, low ones a large Kd.

Sequence of UniProt P02671 (P02671 36-866, chain 1 of 3): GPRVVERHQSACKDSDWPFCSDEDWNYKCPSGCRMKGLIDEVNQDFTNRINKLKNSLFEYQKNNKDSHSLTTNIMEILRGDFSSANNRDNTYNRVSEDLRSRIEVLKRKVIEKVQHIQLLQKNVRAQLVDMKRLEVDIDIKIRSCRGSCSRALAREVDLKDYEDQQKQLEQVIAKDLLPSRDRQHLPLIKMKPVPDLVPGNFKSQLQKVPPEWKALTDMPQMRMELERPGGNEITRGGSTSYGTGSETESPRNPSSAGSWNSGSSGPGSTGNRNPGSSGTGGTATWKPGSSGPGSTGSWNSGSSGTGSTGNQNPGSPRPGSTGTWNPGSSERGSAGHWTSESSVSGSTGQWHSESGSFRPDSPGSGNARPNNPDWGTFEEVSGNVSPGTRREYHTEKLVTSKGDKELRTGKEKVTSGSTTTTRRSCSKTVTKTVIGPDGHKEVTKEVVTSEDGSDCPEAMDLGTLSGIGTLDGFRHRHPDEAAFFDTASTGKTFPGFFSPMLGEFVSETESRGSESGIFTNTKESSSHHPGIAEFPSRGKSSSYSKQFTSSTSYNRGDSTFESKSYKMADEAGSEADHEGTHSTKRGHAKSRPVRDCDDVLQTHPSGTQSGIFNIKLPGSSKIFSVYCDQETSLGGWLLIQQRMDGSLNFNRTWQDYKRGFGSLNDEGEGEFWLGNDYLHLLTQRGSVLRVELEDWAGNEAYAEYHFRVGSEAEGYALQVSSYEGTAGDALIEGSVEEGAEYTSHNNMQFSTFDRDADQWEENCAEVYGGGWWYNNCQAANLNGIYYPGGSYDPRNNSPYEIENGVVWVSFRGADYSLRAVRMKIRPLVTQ
Sequence of UniProt P02671 (P02675 45-491, chain 2 of 3, further chain): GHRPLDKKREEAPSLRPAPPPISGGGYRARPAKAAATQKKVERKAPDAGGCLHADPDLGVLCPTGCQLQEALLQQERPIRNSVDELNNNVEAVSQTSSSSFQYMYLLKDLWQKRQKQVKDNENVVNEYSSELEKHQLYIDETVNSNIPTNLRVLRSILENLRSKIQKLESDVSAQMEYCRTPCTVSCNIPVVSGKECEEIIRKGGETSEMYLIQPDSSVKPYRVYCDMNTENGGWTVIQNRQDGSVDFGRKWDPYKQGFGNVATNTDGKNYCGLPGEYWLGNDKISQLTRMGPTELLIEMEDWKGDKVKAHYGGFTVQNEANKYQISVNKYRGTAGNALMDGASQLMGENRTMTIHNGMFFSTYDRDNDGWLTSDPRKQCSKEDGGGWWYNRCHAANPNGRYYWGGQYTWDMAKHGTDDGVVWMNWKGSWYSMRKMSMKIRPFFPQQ
Sequence of UniProt P02671 (P02679 27-453, chain 3 of 3, further chain): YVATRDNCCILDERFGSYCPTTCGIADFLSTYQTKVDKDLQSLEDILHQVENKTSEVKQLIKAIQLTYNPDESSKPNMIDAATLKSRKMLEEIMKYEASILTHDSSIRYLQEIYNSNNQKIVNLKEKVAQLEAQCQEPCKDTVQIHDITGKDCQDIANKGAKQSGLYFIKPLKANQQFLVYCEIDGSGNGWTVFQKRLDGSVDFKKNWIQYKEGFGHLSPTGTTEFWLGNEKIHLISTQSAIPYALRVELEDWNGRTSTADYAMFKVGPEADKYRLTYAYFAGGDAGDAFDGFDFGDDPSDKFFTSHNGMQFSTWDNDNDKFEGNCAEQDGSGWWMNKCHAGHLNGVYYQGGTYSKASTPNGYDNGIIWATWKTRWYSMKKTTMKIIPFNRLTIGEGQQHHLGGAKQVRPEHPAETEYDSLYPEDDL

Substance GPRP-FnIII9-10-AF633 (designed binder) yielded a percent of fibrin matrix still retaining the conjugate after perfusion in experiment [1] of 12.8%.

In experiment [2], GPRP-FnIII9-10 (designed binder) showed a KD with a 10-molar excess of soluble GPRP peptide of 43 µM and a pKd of 5.52. Turning to GPRV-FnIII9-10 (designed binder), the pKd in experiment [2] was 3.90.

For the origin of these results see publication PMC2813981.
